In the assay the target is Spacer-GST. The assay can be described thus: SPR (Biacore X-100). (Surface plasmon resonance follows binding to a sensor surface in real time, without labels.)

B1: CRB0017_IgG4 (antibody, V domains shown)
VH: QVQLQQSGAELAKPGASVKMSCKASGYTFTSYWMHWVKQRPGQGLEWIGYINPSTGYTEYNQKFKDKATLTADKSSSTAYMQLGSLTSEDSAVYYCARGGYDDLGYWGQGTTLTVSS
VL: DIVITQDELSNPVTSGESVSISCRSSKSLLYKDGKTYLYWFLQRPGQSPQLPIYLMSTRASGVSDRFSGSGSGTDFTLEISRVKAEDVGVYYCQQLVEYPYTFGGGTKLEIK
Broadly, the Kd is a measure of binding affinity in units of concentration. B1 registered a Kd of 2.15 nM.
